Laboratory results: US20040141964A1 (GlaxoSmithKline, published 2004)

T1: human IL-18 (human, UniProt Q14116 37-193)
T1 sequence (looked up): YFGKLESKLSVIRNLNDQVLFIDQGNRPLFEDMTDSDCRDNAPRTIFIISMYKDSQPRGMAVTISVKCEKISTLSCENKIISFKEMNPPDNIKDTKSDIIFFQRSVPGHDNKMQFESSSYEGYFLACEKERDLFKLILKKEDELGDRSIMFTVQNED


What was measured:
human IL-18 [1] = target: T1, human IL-18; assay: cell-based or functional assay
human IL-18 [2] = target: T1, human IL-18; assay: BIAcore optical biosensor, 25 C; mAb captured on anti-rat IgG Fc surface, IL-18 injected
Method: (§1) Kinetic data was evaluated using relationships described previously (Karlsson et al, J. Immunol. Meth., 145:229-240 (1991) and which is incorporated by reference in its entirely. The mAb (diluted in HBS buffer, 10 mM HEPES, 150 mM NaCl, 0.01% Tween-20. pH 7.4) was injected over a rabbit anti-mouse IgG Fc or goat anti-rat IgG Fc surface, followed by buffer flow and the RU was recorded. IL-18 (diluted in HBS buffer) was then injected for 180 seconds followed by a buffer flow for 500 seconds and the RU was recorded. The sensor chip surface was regenerated by an injection of 0.1 M phosphoric acid.

human IL-18 [3] = target: T1, human IL-18; assay: BIAcore optical biosensor, 25 C; mAb captured on anti-mouse IgG Fc surface, IL-18 injected
Method: as §1

Neutralisation IC50 (human IL-18 [1]) [nM] | Kd (human IL-18 [2]) [nM] | Kd (human IL-18 [3]) [nM] | Binder
0.1 | 0.039 |  | rat monoclonal antibody 2C10 (antibody, IgG1, V domains shown, Mab purified from a rat hybridoma, isotype IgG1 kappa; also called mAb 2C10; 2C10 (rat)) VH: EVQLQQSGAELVRPGTSVKLSCKVSGEISTGYYFHFVRRRPGQGLEWIGRIDPEDDSTKYAERFKDRATLTAQTSSNTAYLNLSSLTSEDTATYFCTTWRIYRDSSGRPFYVMDAWGQGASVTVSS VL: DIQMTQSPASLSASLGETVSIECLASEDIYTYLTWYQQKPGKSPQLLIYGANKLQDGVPSRFSGSGSGTQYSLKISGIQPEDEGDYFCLQGSKFPLTFGSGTKLEIKR
0.2 | 0.15 |  | rat monoclonal antibody 14B7 (antibody, IgG1, V domains shown, Mab purified from a rat hybridoma, isotype IgG1 kappa; also called mAb 14B7; 14B7 (rat)) VH: EVQLQQSGAELVRPGTSVKFSCKVSGDTPTTYYVHFVRQRPGQGLEWIGRIDPEDTSTKYAEKFRNKATFTADPSSNTAYLNLSSLTPEDTATYFCTIMRYHSTYRVYVMDFWGQGTAVTVS VL: DIQMTQSPASLSASLGETVSIECLASEDIYSYLAWYQQKPGKSPQLLIYATKRLQDGVPSRFSGSGSGTQYSLKISDMQPEDEGDYFCLQNSKFPVTFGSGTKLEIKR
3 |  | 12 | murine monoclonal antibody 13G9 (antibody, IgG1, V domains shown, Mab purified from a mouse hybridoma, isotype IgG1 kappa; also called mAb 13G9; 13G9 (mouse)) VH: QVTLKESGPGILKPSQTLSLTCSFSGFSLSTSGMGIAWVRQPSGKGLEWLADIWWDDNKYYNPSLESQLTISKDTSRNQVFLTITSVDTADSATYYCARHHYDGSSLLPMDYWGQGTSVTVSS VL: DVVMTQTPLSLPVSLGDQASISCRSSQSLVHSNGNTYLHWYLQKPGQSPKLLIYKVSNRFSGVPDRFSGSGSGTDFTLKISRVEAEDLGVYFCSQSTHVPPYTFGGGTKLEIKR
